Experiments:
[1] = molecular target: HLA-B*27:05; experiment: IEDB peptide-MHC binding, purified MHC/direct/fluorescence; filed as Kd, often an IC50 or EC50 that approximates it; ≥ and ≤ were set here for values at or beyond the usual limits of such assays
[2] = molecular target: HLA-B*35:01; experiment: as above; conditions: source organism: Giardia lamblia ATCC 50803
[3] = molecular target: HLA-A*01:01; experiment: as above
[4] = molecular target: HLA-B*07:02; experiment: as above
[5] = molecular target: HLA-B*58:01; experiment: as above
[6] = molecular target: HLA-A*31:01; experiment: as above
[7] = molecular target: HLA-B*44:02; experiment: as above
[8] = molecular target: HLA-B*08:01; experiment: as above
[9] = molecular target: HLA-B*15:01; experiment: as above
[10] = molecular target: HLA-A*03:01; experiment: as above
[11] = molecular target: HLA-B*40:01; experiment: as above
[12] = molecular target: HLA-B*73:01; experiment: as above
[13] = molecular target: HLA-A*11:01; experiment: as above
[14] = molecular target: HLA-A*26:01; experiment: as above
[15] = molecular target: HLA-A*02:01; experiment: as above
[16] = molecular target: HLA-A*69:01; experiment: as above
[17] = molecular target: HLA-A*30:01; experiment: as above; conditions: source organism: Brucella melitensis
[18] = molecular target: HLA-A*02:01; experiment: IEDB peptide-MHC binding, cellular MHC/competitive/fluorescence; ≥ and ≤ were set here for values at or beyond the usual limits of such assays; conditions: source organism: Human immunodeficiency virus 1
[19] = molecular target: HLA-C*12:03; experiment: IEDB peptide-MHC binding, purified MHC/direct/fluorescence; filed as Kd, often an IC50 or EC50 that approximates it; ≥ and ≤ were set here for values at or beyond the usual limits of such assays; conditions: source organism: Giardia lamblia ATCC 50803
[20] = molecular target: HLA-C*15:02; experiment: as above; conditions: source organism: Giardia lamblia ATCC 50803
[21] = molecular target: HLA-C*14:02; experiment: as above; conditions: source organism: Giardia lamblia ATCC 50803
[22] = source organism: Giardia lamblia ATCC 50803
[23] = source organism: Brucella melitensis
[24] = source organism: Brucella abortus

RHIAIQVCY
Kd [1, 22]: 3.36 µM
Kd [2]: 1.19 µM
Kd [3, 22]: ≥ 20 µM
Kd [4, 22]: ≥ 20 µM
Kd [5, 22]: ≥ 20 µM
Kd [6, 22]: ≥ 20 µM
Kd [7, 22]: ≥ 20 µM
Kd [8, 22]: ≥ 20 µM
Kd [9, 22]: 1.73 µM
Kd [10, 22]: ≥ 20 µM
Kd [11, 22]: ≥ 20 µM
Kd [12, 22]: ≥ 20 µM
Kd [13, 22]: ≥ 20 µM
Kd [14, 22]: ≥ 20 µM
Kd [15, 22]: ≥ 20 µM
Kd [16, 22]: ≥ 20 µM

SRIGAWASK
Kd [1, 23]: 0.0531 µM
Kd [17]: 1.27 µM
Kd [3, 24]: ≥ 20 µM
Kd [4, 24]: ≥ 20 µM
Kd [5, 24]: ≥ 20 µM
Kd [6, 24]: ≥ 20 µM
Kd [7, 24]: ≥ 20 µM
Kd [8, 24]: ≥ 20 µM
Kd [9, 24]: ≥ 20 µM
Kd [10, 23]: 5.83 µM
Kd [11, 24]: ≥ 20 µM
Kd ([12]; source organism: Brucella suis 1330): ≥ 20 µM
Kd [13, 23]: 1.22 µM
Kd [14, 24]: ≥ 20 µM
Kd [15, 24]: ≥ 20 µM
Kd [16, 24]: ≥ 20 µM

VLDVGDAYFSV
IC50 [18]: 7 µM

YLYLRPYAL
Kd [19]: 0.029 µM
Kd [8, 22]: 0.016 µM
Kd [20]: 3.05 µM
Kd [21]: 0.151 µM
